Peptide text beside a SMILES is read from it. * marks the point of attachment. Palmitoyl = CCCCCCCCCCCCCCCC(=O)*; Myristoyl = CCCCCCCCCCCCCC(=O)*; Octanoyl = CCCCCCCC(=O)*; Butyryl = CCCC(=O)*
What was measured:
[1] = tested on: PTC (primary colon) tumor cells; assay: MTT cytotoxicity assay, PTC cells; format: cell-based, human; details: 48 hours
Text: (§1) The cytotoxic effect of Lipo peptide analogs, DT-A1 (SEQ ID NO: 2), DT-B1 (SEQ ID NO: 3), DT-01 (SEQ ID NO: 4), DT-M1 (SEQ ID NO: 5) and DT-P1 (SEQ ID NO: 6) was studied by MTT assay which is based on the principle of uptake of MTT [3-[4,5-dimethylthiazol-2-yl]-2,5-diphenyl tetrazolium bromide], a tetrazolium salt by the metabolically active cells where it is metabolized by active mitochondria into a blue colored formazan product which can be read spectrophotometrically. Briefly, tumor cells PTC (primary colon) KB (Oral squamous), U87MG (Glioblastoma), HBL100 (Breast), HeP2 (Laryngeal), ECV304 (Endothelial), PA-1 (Ovary) and L132 (Lung) were incubated with the peptide analogs for 48 hours at 37° C. in a 96-well culture plate, followed by the addition of 100 μg MTT and _further incubation of 1 hour. The formazan crystals formed inside the cells were dissolved with a detergent comprising 10% Sodium dodecyl sulfate and 0.01 N HCl and optical density read on a multiscan ELISA reader. The optical density was directly proportional to the number of proliferating and metabolically active cells.

[2] = tested on: KB (Oral squamous) tumor cells; assay: MTT cytotoxicity assay, KB cells; format: cell-based; details: 48 hours
Text: as §1

[3] = tested on: U87MG (Glioblastoma) tumor cells; assay: MTT cytotoxicity assay, U87MG cells; format: cell-based; details: 48 hours
Text: as §1

[4] = tested on: HBL100 (Breast) tumor cells; assay: MTT cytotoxicity assay, HBL100 cells; format: cell-based; details: 48 hours
Text: as §1

[5] = tested on: HeP2 (Laryngeal) tumor cells; assay: MTT cytotoxicity assay, HeP2 cells; format: cell-based; details: 48 hours
Text: as §1

L132 (Lung) tumor cells = assay: MTT cytotoxicity assay, L132 cells; format: cell-based; details: 48 hours
Text: as §1

PA-1 (Ovary) tumor cells = assay: MTT cytotoxicity assay, PA-1 cells; format: cell-based; details: 48 hours
Text: as §1

[6] = tested on: ECV304 (Endothelial) cells; assay: MTT cytotoxicity assay, ECV304 cells; format: cell-based; details: 48 hours
Text: as §1

[7] = tested on: human colon adenocarcinoma (PTC) xenografts; assay: Antitumor activity in PTC xenografts in nude mice; format: in vivo
Experimental: The antitumor activity of DT-B1 (SEQ ID NO: 3) was studied in human colon adenocarcinoma (PTC) xenografts in nude mice. PTC tumor xenografts were grown in Balb/c a thymic mice by subcutaneous inoculation of a single cell suspension of PTC cells (15×10^6 cells/100 EL). The tumor bearing animals were divided into 2 groups of three animals each including one group comprising untreated control animals. Treatment with DT-B1 was initiated when the average tumor volumes, as measured using a vernier caliper, were between 1.3 cm^3. Solutions of DT-B1 was prepared at a concentration of 126 μg/ml and intravenously administered to the assigned group of tumor bearing animals at a dose of 12.6 μg/100 μL twice a day so that the total dose of 25.2 μg/day was administered to each animal. The treatment was continued for a period of 14 days.
The antitumor activity of the compounds was monitored by measuring tumor volumes every fourth day using the formula W*W*L*0.4 (W=smaller diameter, L=larger diameter). The percentage inhibition of tumor growth was calculated using the formula (1-tumor volume-treated/tumor volume-control)* 100.

Compound | Percentage cytotoxicity ([2]; 1 nM) [%] | Percentage cytotoxicity ([2]; 10 nM) [%] | Percentage cytotoxicity ([2]; 100 nM) [%] | Percentage cytotoxicity ([2]; 1 μM) [%] | Percentage cytotoxicity ([3]; 1 nM) [%] | Percentage cytotoxicity ([3]; 10 nM) [%] | Percentage cytotoxicity ([3]; 100 nM) [%] | Percentage cytotoxicity ([3]; 1 μM) [%] | Percentage cytotoxicity ([4]; 1 nM) [%] | Percentage cytotoxicity ([4]; 10 nM) [%] | Percentage cytotoxicity ([4]; 100 nM) [%] | Percentage cytotoxicity ([5]; 1 nM) [%] | Percentage cytotoxicity ([5]; 10 nM) [%] | Percentage cytotoxicity ([5]; 100 nM) [%] | Percentage cytotoxicity ([5]; 1 μM) [%] | Percentage cytotoxicity (L132 (Lung) tumor cells; 1 nM) [%] | Percentage cytotoxicity (L132 (Lung) tumor cells; 10 nM) [%] | Percentage cytotoxicity (L132 (Lung) tumor cells; 100 nM) [%] | Percentage cytotoxicity (L132 (Lung) tumor cells; 1 μM) [%] | Percentage cytotoxicity (PA-1 (Ovary) tumor cells; 1 nM) [%] | also measured
CCCCCCCCCCCCCC(=O)N[C@@H](CC(C)C)C(=O)N[C@@H](CCSC)C(=O)N[C@@H](Cc1ccc(O)cc1)C(=O)N1CCC[C@H]1C(=O)N[C@H](C(=O)N[C@@H](Cc1ccc(O)cc1)C(=O)N[C@@H](CC(C)C)C(=O)N[C@@H](CCCCN)C(=O)O)[C@@H](C)O [DT-M1, Myristoyl-Leu-Met-Tyr-Pro-Thr-Tyr-Leu-Lys-OH] (Myristoyl-LMYPTYLK-OH) | 21.0 ± 26 | 23.9 ± 3.1 | 19.0 ± 3.2 | 12.9 ± 1.6 | 29.4 ± 1.2 | 44.9 ± 2.7 | 32.2 ± 2.2 | 5.0 ± 2.5 | 21.9 ± 2.4 | 31.6 ± 3.8 | 30.4 ± 2.4 | 15.8 ± 2.2 | 18.7 ± 2.2 | 22.9 ± 1.3 | 12.9 ± 1.2 | 10.6 ± 1.9 | 26.7 ± 1.1 | 16.8 ± 2.1 | 9.6 ± 2.4 | 27.5 ± 2.9 | Percentage cytotoxicity ([1]; 1 nM): 26 ± 0.5%; Percentage cytotoxicity ([1]; 10 nM): 25 ± 3.6%; Percentage cytotoxicity ([1]; 100 nM): 31 ± 4.6%; Percentage cytotoxicity ([1]; 1 μM): 30 ± 3.9%; Percentage cytotoxicity ([4]; 1 μM): 29.6 ± 2.3%; Percentage cytotoxicity (PA-1 (Ovary) tumor cells; 10 nM): 42.0 ± 2.2%; Percentage cytotoxicity (PA-1 (Ovary) tumor cells; 100 nM): 25.9 ± 3.3%; Percentage cytotoxicity (PA-1 (Ovary) tumor cells; 1 μM): 15.7 ± 1.2%; Percentage cytotoxicity ([6]; 1 nM): 21.9 ± 1.6%; Percentage cytotoxicity ([6]; 10 nM): 16.9 ± 3.1%; Percentage cytotoxicity ([6]; 100 nM): 22.9 ± 1.0%; Percentage cytotoxicity ([6]; 1 μM): 17.7 ± 1.2%
Ac-LMYPTYLK-OH [DT-A1, Acetyl-Leu-Met-Tyr-Pro-Thr-Tyr-Leu-Lys-OH] | 25.9 ± 1.6 | 31.0 ± 2.1 | 26.9 ± 2.1 | 21.0 ± 2.3 | 10.4 ± 1.3 | 29.9 ± 2.2 | 26.9 ± 1.5 | 21.9 ± 1.4 | 19.9 ± 3.5 | 31.9 ± 3.5 | 30.5 ± 1.3 | 14.9 ± 2.2 | 39.9 ± 1.8 | 21.9 ± 2.7 | 19.7 ± 1.1 | 13.9 ± 2.9 | 26.4 ± 3.2 | 14.6 ± 3.1 | 12.9 ± 2.4 | 21.9 ± 1.5 | Percentage cytotoxicity ([4]; 1 μM): 28.9 ± 1.2%; Percentage cytotoxicity (PA-1 (Ovary) tumor cells; 10 nM): 24.9 ± 2.6%; Percentage cytotoxicity (PA-1 (Ovary) tumor cells; 100 nM): 18.5 ± 2.3%; Percentage cytotoxicity (PA-1 (Ovary) tumor cells; 1 μM): 6.9 ± 3.2%; Percentage cytotoxicity ([6]; 1 nM): 8.0 ± 2.5%; Percentage cytotoxicity ([6]; 10 nM): 16.5 ± 3.4%; Percentage cytotoxicity ([6]; 100 nM): 22.0 ± 2.3%; Percentage cytotoxicity ([6]; 1 μM): 10.8 ± 3.4%
Palmitoyl-Leu-Met-Tyr-Pro-Thr-Tyr-Leu-Lys-OH (Palmitoyl-LMYPTYLK-OH) [DT-P1] | 21.9 ± 2.6 | 32.0 ± 2.1 | 23.0 ± 2.2 | 18.0 ± 2.6 | 9.6 ± 1.8 | 34.0 ± 2.6 | 32.9 ± 2.5 | 18.4 ± 2.4 | 25.7 ± 2.5 | 34.9 ± 3.6 | 33.3 ± 1.4 | 13.9 ± 1.2 | 24.9 ± 2.8 | 28.9 ± 1.7 | 14.9 ± 1.3 | 10.9 ± 1.9 | 29.0 ± 1.2 | 19.6 ± 1.1 | 17.8 ± 2.2 | 20.5 ± 1.9 | Percentage cytotoxicity ([1]; 1 nM): 27 ± 3.1%; Percentage cytotoxicity ([1]; 10 nM): 21 ± 1.2%; Percentage cytotoxicity ([1]; 100 nM): 33 ± 1.1%; Percentage cytotoxicity ([1]; 1 μM): 31 ± 3.1%; Percentage cytotoxicity ([4]; 1 μM): 28.9 ± 1.3%; Percentage cytotoxicity (PA-1 (Ovary) tumor cells; 10 nM): 21.9 ± 2.2%; Percentage cytotoxicity (PA-1 (Ovary) tumor cells; 100 nM): 25.6 ± 3.3%; Percentage cytotoxicity (PA-1 (Ovary) tumor cells; 1 μM): 21.7 ± 2.2%; Percentage cytotoxicity ([6]; 1 nM): 18.8 ± 2.6%; Percentage cytotoxicity ([6]; 10 nM): 19.9 ± 3.4%; Percentage cytotoxicity ([6]; 100 nM): 31.9 ± 1.3%; Percentage cytotoxicity ([6]; 1 μM): 25.9 ± 1.4%
n-Butanoyl-Leu-Met-Tyr-Pro-Thr-Tyr-Leu-Lys-OH (Butyryl-LMYPTYLK-OH) [DT-B1] | 21.9 ± 0.5 | 25.9 ± 4.1 | 18.9 ± 3.2 | 14.8 ± 2.3 | 33.9 ± 0.6 | 39.7 ± 2.7 | 30.7 ± 1.7 | 20.6 ± 1.7 | 33.0 ± 1.5 | 34.8 ± 1.8 | 33.9 ± 2.8 | 8.7 ± 1.5 | 22.9 ± 1.6 | 14.9 ± 5.3 | 12.9 ± 4.4 | 13.9 ± 1.9 | 26.8 ± 1.9 | 10.7 ± 2.6 | 11.8 ± 2.3 | 43.9 ± 2.9 | Percentage cytotoxicity ([1]; 1 nM): 36 ± 1.0%; Percentage cytotoxicity ([1]; 10 nM): 44 ± 1.3%; Percentage cytotoxicity ([1]; 100 nM): 48 ± 1.7%; Percentage cytotoxicity ([1]; 1 μM): 31 ± 1.5%; Percentage cytotoxicity ([4]; 1 μM): 32.8 ± 2.2%; Percentage cytotoxicity (PA-1 (Ovary) tumor cells; 10 nM): 45.8 ± 1.2%; Percentage cytotoxicity (PA-1 (Ovary) tumor cells; 100 nM): 38.5 ± 1.6%; Percentage cytotoxicity (PA-1 (Ovary) tumor cells; 1 μM): 33.7 ± 1.6%; Percentage cytotoxicity ([6]; 1 nM): 18.7 ± 5.3%; Percentage cytotoxicity ([6]; 10 nM): 19.9 ± 4.2%; Percentage cytotoxicity ([6]; 100 nM): 31.9 ± 2.8%; Percentage cytotoxicity ([6]; 1 μM): 25.8 ± 2.3%; percentage inhibition of tumor growth as compared to controls ([7]; day 20, intravenous 12.6 μg twice a day (25.2 μg/day) for 14 days, PTC xenografts in nude mice): 95.85%; antitumor activity on PTC xenografts (in words) ([7]; intravenous 25.2 μg/day for 14 days, tumor kinetics till day 20): significant antitumor activity
n-Octanoyl-Leu-Met-Tyr-Pro-Thr-Tyr-Leu-Lys-OH (Octanoyl-LMYPTYLK-OH) [DT-O1] | 21.0 ± 0.6 | 34.9 ± 3.1 | 26.9 ± 2.2 | 23.9 ± 1.3 | 37.0 ± 1.6 | 38.7 ± 1.7 | 28.6 ± 1.2 | 21.9 ± 1.5 | 30.0 ± 1.4 | 33.7 ± 2.8 | 32.8 ± 2.8 | 8.6 ± 2.5 | 22.9 ± 1.2 | 17.9 ± 2.3 | 18.8 ± 4.2 | 19.4 ± 2.9 | 25.9 ± 1.7 | 14.9 ± 2.5 | 7.9 ± 2.3 | 26.0 ± 3.9 | Percentage cytotoxicity ([1]; 1 nM): 28 ± 5.4%; Percentage cytotoxicity ([1]; 10 nM): 32 ± 0.3%; Percentage cytotoxicity ([1]; 100 nM): 33 ± 3.2%; Percentage cytotoxicity ([1]; 1 μM): 29 ± 5.5%; Percentage cytotoxicity (PA-1 (Ovary) tumor cells; 10 nM): 37.8 ± 2.2%; Percentage cytotoxicity (PA-1 (Ovary) tumor cells; 100 nM): 22.6 ± 3.6%; Percentage cytotoxicity (PA-1 (Ovary) tumor cells; 1 μM): 6.0 ± 1.4%; Percentage cytotoxicity ([6]; 1 nM): 16.9 ± 1.3%; Percentage cytotoxicity ([6]; 10 nM): 27.9 ± 3.2%; Percentage cytotoxicity ([6]; 100 nM): 24.9 ± 2.4%; Percentage cytotoxicity ([6]; 1 μM): 23.9 ± 2.2%

From US6828304B1, “Peptides for treatment of cancer” (Dabur Research Foundation, priority 2000, dated 2004)
